{
  "source": "paper PMC2733758",
  "about": "(The Journal of Cell Biology, 2009)",
  "binders": {"B1": {"name": "in vitro-translated, [35S]methionine-labeled FZO-1 protein (natural protein, C. elegans, UniProt Q23424 1-774, looked up)", "chain": "MSGTASLVHTLPASGDSNHRGLHSLKNSRRAADNEPLLRFREAKKVLGDVYGELKDNVAELEGVYKDIKENDFVSSEQREEIEAIGDSIKTIMDTFQRDNMKVVFFGRTSNGKSTTINAMLHEKVLPQGMGHTTCCFLQVEGSEGEVGHLQLDDNPQKIDMKMLGKIGHALSDENSDLPAMGQDSLLKVFHPKKSESGECRLLQNDVVILDSPGVDLSPEFDSWIDKHCLDADVFVLVSNAESTLTQAEKNFFLRVAKKLSKPNVFILNNRWDASAAETENIEDVKKQHLTRFRQFLVDELEVCSEREVNDRIFFVSSREVLESRLKARGLVQKAYQAEGHGTRALEFQNFERHFEHCISRSAIHTKFEAHNRRAHEMIGKMRLNLNSVLTSAAEQRSKLQNNLNESTRTFNECRVNFTQFEKAYREQTEQLRAEVHLKVSADFFEEIARLDAIIDRFEQPFDGSSSGMTKYKEDLAIFVDKCLSSDLEARCTGGLMSRIWNLENDMFQYVTKILAEPYQNKLEEVWRYRAPFKFSICVDVPALVNDFHEDLEFRFTFGLHAIIRRIIAYRSGQPVTAINTNLLTPLSLKQQSEKNSVRDAEASAASEEQAMMTQMVLTSAAFLANGSLGVLVVGGIVYKAVGWRVIAVGGAAYAGLYAWERMRWNSGAKEQHLKEQFRSHLAARMQQVSTAHTHHCETQAIREMDQVFDGLKATVGGVHREMKNDLDVQKTQIDAVDSTIRTLGTIKGKAVFLLRNLEQFASSYLRSDSPPTP", "modifications": "[35S]methionine-labeled"}},
  "target": "T1, GST∷CED-9(R211E, N212G) (C. elegans, UniProt P41958 1-280, R211E | N212G)",
  "T1 sequence (looked up)": "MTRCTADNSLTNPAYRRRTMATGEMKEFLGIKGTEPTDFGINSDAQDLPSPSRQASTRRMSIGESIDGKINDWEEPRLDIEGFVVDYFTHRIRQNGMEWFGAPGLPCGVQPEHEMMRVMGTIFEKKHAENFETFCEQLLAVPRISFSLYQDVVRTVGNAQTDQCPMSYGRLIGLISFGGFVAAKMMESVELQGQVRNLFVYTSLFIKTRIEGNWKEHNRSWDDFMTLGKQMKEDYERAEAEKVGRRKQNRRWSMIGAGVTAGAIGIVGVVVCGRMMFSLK",
  "assay": "pull-down",
  "data": [
    {"binder": "B1", "values": [
      {"measurement": "fold lower affinity than wild-type CED-9", "result": 3, "unit": "fold"}
    ]}
  ]
}
